The target of test [1] is Recombinant Human OX40L Protein, His Tag (Acro Cat. IL3-H52H4) (human) (UniProt P23510). As to the kind of experiment: SPR (Biacore 8K), antibody captured, human OX40L injected, 1:1 fit. A general note: SPR reads the build-up and loss of mass on a sensor chip optically.
For test [2], the target named is hOX40L added as soluble protein in cell assays (human) (UniProt P23510). As to the kind of experiment: cell-based or functional assay.
hOX40L added as soluble protein in cell assays (human), sequence (P23510 51-183 limits assumed): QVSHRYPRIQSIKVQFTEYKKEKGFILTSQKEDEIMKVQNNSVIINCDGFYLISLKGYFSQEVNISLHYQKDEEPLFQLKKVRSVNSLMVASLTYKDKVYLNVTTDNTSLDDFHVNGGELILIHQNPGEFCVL

Recombinant Human OX40L Protein, His Tag (Acro Cat. IL3-H52H4) (human), sequence (P23510 51-183 limits assumed): as above

B1: positive control based on the sequences of the anti-hOX40L antibody amlitelimab (antibody, IgG4, V domains shown)
VH: EVQLVESGGGLVQPGGSLRLSCAASGFTFSNYAMNWVRQAPGKGLEWVSTISGSGGATRYADSVKGRFTISRDNSRNTVYLQMNSLRVEDTAVFYCTKDRLIMATVRGPYYYGMDVWGQGTTVTVSS
VL: DIQMTQSPSSLSASVGDRVTITCRASQSISSYLNWYQQKPGKAPNLLIYAASSLQSGVPSRFSGSGSETDFTLTISSLQPEDFATYYCQQSHSVSFTFGPGTKVDIK
By Kd is commonly meant the constant that tells how readily two partners part at equilibrium. The koff is the rate constant with which the complex falls apart. The term kon denotes the second-order rate constant of association. Regarding B1, in test [1], the dissociation constant (Kd) was found to be 0.071 nM, the off-rate (koff) was determined as 0.000112 s⁻¹ and the kon came to 1.58e+06 M⁻¹ s⁻¹. Besides, in test [2], the IC50, luminescence (RLU), hOX40 reporter cells with 50 ng/mL hOX40L worked out at 1.17 nM; the Mean IFNγ concentration, MLR + OX40L (1000 ng/ml); donor pairing 1; antibody 4 nM turned out to be 201 pg/mL; the Mean IFNγ concentration, MLR + OX40L (1000 ng/ml); donor pairing 1; antibody 20 nM amounted to 41.4 pg/mL; the Mean IFNγ concentration, MLR + OX40L (1000 ng/ml); donor pairing 1; antibody 100 nM stood at 145 pg/mL. Further, in test [2], the Mean IFNγ concentration, MLR + OX40L (1000 ng/ml); donor pairing 3; antibody 4 nM came out at 1050 pg/mL; the Mean IFNγ concentration, MLR + OX40L (1000 ng/ml); donor pairing 3; antibody 20 nM worked out at 520 pg/mL; the Mean IFNγ concentration, MLR + OX40L (1000 ng/ml); donor pairing 3; antibody 100 nM amounted to 75.4 pg/mL; the Mean IFNγ concentration, MLR + OX40L (1000 ng/ml); donor pairing 4; antibody 4 nM was found to be 1170 pg/mL. In test [2], the Mean IFNγ concentration, MLR + OX40L (1000 ng/ml); donor pairing 4; antibody 20 nM worked out at 424 pg/mL; the Mean IFNγ concentration, MLR + OX40L (1000 ng/ml); donor pairing 4; antibody 100 nM is 161 pg/mL; the Mean IFNγ concentration, MLR + OX40L (1000 ng/ml); donor pairing 5; antibody 4 nM is 1350 pg/mL; the Mean IFNγ concentration, MLR + OX40L (1000 ng/ml); donor pairing 5; antibody 20 nM came to 780 pg/mL. In test [2], the Mean IFNγ concentration, MLR + OX40L (1000 ng/ml); donor pairing 5; antibody 100 nM was determined as 878 pg/mL; the Mean IFNγ concentration, MLR + OX40L (1000 ng/ml); donor pairing 6; antibody 4 nM amounted to 780 pg/mL; the Mean IFNγ concentration, MLR + OX40L (1000 ng/ml); donor pairing 6; antibody 20 nM was 279 pg/mL; the Mean IFNγ concentration, MLR + OX40L (1000 ng/ml); donor pairing 6; antibody 100 nM is 202 pg/mL. In addition, in test [2], the Mean IFNγ concentration, MLR + OX40L (1000 ng/ml); donor pairing 8; antibody 4 nM was found to be 17.3 pg/mL; the Mean IFNγ concentration, MLR + OX40L (1000 ng/ml); donor pairing 8; antibody 20 nM was 10.8 pg/mL; the Mean IFNγ concentration, MLR + OX40L (1000 ng/ml); donor pairing 8; antibody 100 nM is 92.5 pg/mL.

The values above are taken from patent US20260217843A1.
